Legend:
[1] = biological target: recombinant mouse IL-17A (SEQ ID NO: 83) (mouse) (UniProt Q62386); experiment: cell-based or functional assay
[2] = biological target: recombinant mouse IL-17F (SEQ ID NO: 84) (mouse) (UniProt Q7TNI7); experiment: cell-based or functional assay
[3] = biological target: recombinant human IL-17F (SEQ ID NO: 77) (human) (UniProt Q96PD4); experiment: cell-based or functional assay
[4] = biological target: recombinant human IL-17A (SEQ ID NO: 76) (human) (UniProt Q16552); experiment: cell-based or functional assay
recombinant human IL-17A (SEQ ID NO: 76) (human), sequence (Q16552 other isoform, or with tags, fused parts or gaps limits assumed): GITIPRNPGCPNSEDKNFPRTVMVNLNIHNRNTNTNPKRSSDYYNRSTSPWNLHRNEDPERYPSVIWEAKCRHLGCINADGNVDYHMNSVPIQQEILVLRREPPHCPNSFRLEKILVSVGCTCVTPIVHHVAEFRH

[5] = biological target: recombinant rat IL-17A (SEQ ID NO: 85) (rat) (UniProt Q61453); experiment: cell-based or functional assay
recombinant rat IL-17A (SEQ ID NO: 85) (rat), sequence (Q61453 other isoform, or with tags, fused parts or gaps limits assumed): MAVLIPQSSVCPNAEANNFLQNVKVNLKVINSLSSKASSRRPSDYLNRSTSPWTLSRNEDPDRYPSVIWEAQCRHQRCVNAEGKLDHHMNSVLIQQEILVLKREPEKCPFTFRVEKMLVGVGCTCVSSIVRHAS

[6] = biological target: recombinant mouse IL-17A/F (R&D Systems Cat#5390-IL) (mouse) (UniProt Q62386); experiment: cell-based or functional assay
recombinant mouse IL-17A/F (R&D Systems Cat#5390-IL) (mouse), sequence (Q62386 26-158 limits assumed, chain 1 of 2): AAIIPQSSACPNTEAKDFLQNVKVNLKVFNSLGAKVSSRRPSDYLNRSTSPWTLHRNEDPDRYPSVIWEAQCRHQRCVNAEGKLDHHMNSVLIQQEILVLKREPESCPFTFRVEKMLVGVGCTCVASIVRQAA
recombinant mouse IL-17A/F (R&D Systems Cat#5390-IL) (mouse), sequence (Q7TNI7 29-161 limits assumed, chain 2 of 2, further chain): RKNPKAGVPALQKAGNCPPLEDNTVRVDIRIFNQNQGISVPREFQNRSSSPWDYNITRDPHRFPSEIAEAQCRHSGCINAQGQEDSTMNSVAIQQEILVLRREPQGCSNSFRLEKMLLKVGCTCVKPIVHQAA

[7] = biological target: recombinant human IL-17A/F heterodimer (human) (UniProt Q16552); experiment: cell-based or functional assay
recombinant human IL-17A/F heterodimer (human), sequence (Q16552 24-155 limits assumed, chain 1 of 2): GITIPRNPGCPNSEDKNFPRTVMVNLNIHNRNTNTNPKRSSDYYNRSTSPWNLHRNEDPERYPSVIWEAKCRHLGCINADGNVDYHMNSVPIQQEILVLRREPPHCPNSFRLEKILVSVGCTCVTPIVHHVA
recombinant human IL-17A/F heterodimer (human), sequence (Q96PD4 31-163 limits assumed, chain 2 of 2, further chain): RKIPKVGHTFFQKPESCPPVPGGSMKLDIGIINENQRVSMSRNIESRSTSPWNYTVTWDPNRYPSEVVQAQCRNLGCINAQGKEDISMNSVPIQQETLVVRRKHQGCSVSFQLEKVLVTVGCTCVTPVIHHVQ

BSA [8] = biological target: BSA (UniProt P02769); experiment: ELISA, BSA wells, control Ab 5 µg/ml (control antibody not identified)
BSA, sequence (P02769 25-607 limits assumed): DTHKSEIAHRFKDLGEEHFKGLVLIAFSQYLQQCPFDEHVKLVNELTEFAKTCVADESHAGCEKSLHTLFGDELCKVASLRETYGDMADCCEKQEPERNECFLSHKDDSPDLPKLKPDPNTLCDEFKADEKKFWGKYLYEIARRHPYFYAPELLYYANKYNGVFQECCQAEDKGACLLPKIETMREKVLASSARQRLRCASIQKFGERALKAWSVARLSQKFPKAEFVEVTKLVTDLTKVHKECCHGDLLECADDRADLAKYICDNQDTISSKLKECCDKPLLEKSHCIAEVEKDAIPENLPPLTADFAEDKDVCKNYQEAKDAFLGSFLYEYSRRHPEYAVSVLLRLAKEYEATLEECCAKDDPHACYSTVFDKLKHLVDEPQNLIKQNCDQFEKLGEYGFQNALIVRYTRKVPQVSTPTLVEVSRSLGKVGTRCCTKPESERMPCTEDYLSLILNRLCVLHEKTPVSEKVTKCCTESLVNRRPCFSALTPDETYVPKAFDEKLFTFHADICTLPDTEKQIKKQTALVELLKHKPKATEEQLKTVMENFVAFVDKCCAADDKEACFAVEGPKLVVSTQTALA

BSA [9] = biological target: BSA (UniProt P02769); experiment: ELISA, BSA wells, control Ab 1 µg/ml (control antibody not identified)

recombinant human IL-17F (SEQ ID NO: 77) (human), sequence (Q96PD4 other isoform, or with tags, fused parts or gaps limits assumed): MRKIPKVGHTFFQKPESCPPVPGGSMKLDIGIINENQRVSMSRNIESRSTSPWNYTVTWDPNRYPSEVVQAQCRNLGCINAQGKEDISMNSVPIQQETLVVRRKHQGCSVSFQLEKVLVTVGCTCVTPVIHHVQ
recombinant mouse IL-17A (SEQ ID NO: 83) (mouse), sequence (Q62386 other isoform, or with tags, fused parts or gaps limits assumed): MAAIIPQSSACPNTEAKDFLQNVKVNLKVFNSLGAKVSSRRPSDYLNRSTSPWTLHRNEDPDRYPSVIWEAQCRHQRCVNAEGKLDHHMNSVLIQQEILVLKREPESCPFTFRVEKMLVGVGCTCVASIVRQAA
recombinant mouse IL-17F (SEQ ID NO: 84) (mouse), sequence (Q7TNI7 other isoform, or with tags, fused parts or gaps limits assumed): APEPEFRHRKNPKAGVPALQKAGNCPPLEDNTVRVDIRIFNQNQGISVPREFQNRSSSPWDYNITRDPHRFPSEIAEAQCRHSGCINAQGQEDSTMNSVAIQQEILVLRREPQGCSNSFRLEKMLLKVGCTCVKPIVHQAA

| IC50, mouse KC secretion by CMT-93 cells; stimulus mIL-17A (1 nM) [1] | IC50, mouse KC secretion by CMT-93 cells; stimulus mIL-17F (30 nM) [2] | IC50, hu-GRO-alpha secretion by BJ cells; stimulus IL-17F (10 nM) + TNF-α (6 pM) [3] | IC50, hu-GRO-alpha secretion by BJ cells; stimulus IL-17F (30 nM) [3] | IC50, huIL-6 secretion by BJ cells; stimulus rhuIL-17F (10 nM) + rhuTNF-α (6 pM) [3] | IC50, huIL-6 secretion by BJ cells; stimulus rhuIL-17F (30 nM) [3] | IC50, hu-GRO-alpha secretion by BJ cells; stimulus IL-17A (30 pM) + TNF-α (6 pM) [4] | IC50, hu-GRO-alpha secretion by BJ cells; stimulus IL-17A (1 nM) [4] | IC50, huIL-6 secretion by BJ cells; stimulus rhuIL-17A (30 pM) + rhuTNF-α (6 pM) [4] | IC50, huIL-6 secretion by BJ cells; stimulus rhuIL-17A (1 nM) [4] | IC50, mouse KC secretion by CMT-93 cells; stimulus rIL-17A (1 nM) [5] | IC50, mouse KC secretion by CMT-93 cells; stimulus mIL-17A/F (3 nM) [6] | IC50, hu-GRO-alpha secretion by BJ cells; stimulus IL-17A/F (300 pM) + TNF-α (6 pM) [7] | IC50, hu-GRO-alpha secretion by BJ cells; stimulus IL-17A/F (3 nM) [7] | IC50, huIL-6 secretion by BJ cells; stimulus rhuIL-17A/F (300 pM) + rhuTNF-α (6 pM) [7] | IC50, huIL-6 secretion by BJ cells; stimulus rhuIL-17A/F (3 nM) [7] | O.D. (BSA [8]) | O.D. (BSA [9]) | Substance |
| --- | --- | --- | --- | --- | --- | --- | --- | --- | --- | --- | --- | --- | --- | --- | --- | --- | --- | --- |
| > 3000 nM | > 3000 nM | > 3 µM | > 1000 nM | > 3 µM | > 1000 nM | > 3 µM | > 100 nM | > 3 µM | > 100 nM | > 3000 nM | > 3000 nM | > 3 µM | > 100 nM | > 3 µM | > 100 nM |  |  | Simulect® (antibody) |
|  |  |  |  |  |  |  |  |  |  |  |  |  |  |  |  | 0.01 O.D. | 0.149 O.D. | Control antibody (not identified for this antigen) |
